Reference: US20120114755A1, “METHODS AND MATERIALS FOR TISSUE REPAIR” (MAYO FOUNDATION FOR MEDICAL EDUCATION AND RESEARCH, priority 2009, published 2012)
Ends that are not written are not given here.

B1: GDF-5: Recombinant human GDF-5 (MBL, Woburn, Mass.) (protein, UniProt P43026 382-501, looked up)
Growth/differentiation factor …: APLATRQGKRPSKNLKARCSRKALHVNFKDMGWDDWIIAPLEYEAFHCEGLCEFPLRSHLEPTNHAVIQTLMNSMDPESTPPTCCVPTRLSPISILFIDSANNVVYKQYEDMVVESCGCR

Legend:
FDP tendons = experiment: In vitro tissue culture tendon healing model, gel patch with BMSC and/or Substance P: biomechanical testing; assay type: cell-based, dogs; conditions: zone III tendon groups, Substance P 10^−9, 2 weeks and 4 weeks
Experimental: Mixed-breed dogs being euthanized for other IACUC approved studies were used to harvest bone marrow from which bone marrow stromal cells (BMSCs) were cultured. The FDP tendons were harvested from dogs also being euthanized for other IACUC approved studies and these tendons were transected at similar levels, repaired with a single suture and incubated in tissue culture medium. Six repair groups was studied: (1) tendons ends opposed with two single loop sutures of 6/0 nylon (Ethicon, Somerville N.J.); (2) tendons repaired as in group 1 with the interposition of a collagen gel scaffold to the repair site (positive control group); (3) tendons repaired as in group 1 with the interposition of a BMSC-seeded collagen gel scaffold to the repair site; (4) tendons repaired as in group 1, with the interposition of a BMSC-seeded collagen gel scaffold to the repair site and addition of Substance P; (5) tendons repaired as in group 1, with the interposition of a BMSC-seeded collagen gel scaffold to the repair site and addition of GDF-5; and (6) tendons repaired as in group 1, with the interposition of a BMSC-seeded collagen gel scaffold to the repair site and addition of SP and GDF-5. […]
Confluent plates of BMSC were washed twice with sterile PBS and then trypsinized. The cells were counted with a hemocytometer and centrifuged to remove the media, forming a cell pellet with a known number of cells. […]

BMSCs [1] = experiment: MTT cell proliferation assay of BMSCs with rhGDF-5; assay type: cell-based, dogs; conditions: day 10 of cell culture, 100 ng/mL rhGDF-5
Experimental: (§1) Immediately after euthanasia, 8.0 mL of bone marrow was aspirated from each tibia using a 15 mL syringe containing 2.0 mL of heparin solution. Heparin was removed and the bone marrow cells from one dog were divided into three 100-mm dishes in 10 mL of standard medium, which consists of minimal essential medium (MEM) with Earle's salts (Gibco, Grand Island, N.Y.), 10% fetal calf serum and 1% antibiotics (Antibiotic-Antimycotic, Gibco). The bone marrow cells were incubated at 37° C. with 5% CO2 and 95% air at 100% humidity. After 3 days, the medium containing floating cells was removed and new medium was added to the remaining adherent cells. These adherent cells were considered to be BMSCs. The medium was changed every 3 days. After the BMSCs formed colonies, they were treated with EDTA-trypsin to produce a cell suspension and centrifuged at 1500 rpm for 5 minutes to remove the EDTA-trypsin solution. The concentrated cell suspension was gathered in one tube and seeded in new dishes. Recombinant human GDF-5 (MBL, Woburn, Mass.) was added to the culture medium at a concentration of 100 ng/mL and culture continued for and additional 10 days.
Quantification of cell proliferation and viability was measured using Cell Proliferation Kit I (Roche, Basel, Switzerland). […] The absorbance was measured using Spectra Max Plus (Molecular Devises, Sunnyvale, Calif.). […]

BMSCs [2] = experiment: Quantitative RT-PCR of BMSCs cultured with GDF-5; assay type: cell-based, canine
Experimental: as §1
Total RNA was extracted from culture cells using RNeasy Micro kit (Qiagen, Valencia, Calif.), according to the manufacturer's recommendations. The RNA concentration was determined using a NanoDrop (Thermo scientific, Waltham, Mass.). RNA was reverse transcribed into single-stranded cDNA with an anchored-oligo(dT) primer using Transcriptor First Strand cDNA Synthesis Kit (Roche). The reverse transcriptase was inactivated by heating to 85° C. for 5 minutes. The expression of tenomodulin (a marker of tenocyte differentiation), collagen type I and collagen type III was quantified with LightCycler 480 SYBR Green I Master kit (Roche) in a LightCycler 480 instrument (Roche). HPRT served as the reference gene. Five samples were measured in each group.

Row | Molecule | maximum force compared with cell only control (FDP tendons) | proliferation of BMSCs (MTT) compared with BMSCs without GDF5 stimulation (BMSCs [1]) | collagen type I mRNA expression, treated vs untreated cells (BMSCs [2]; 100 ng/mL) | collagen type III mRNA expression, treated vs untreated cells (BMSCs [2]; 100 ng/mL) | expression of tenomodulin mRNA compared with untreated cells (BMSCs [2]; day 10, 100 ng/mL)
1 | Substance P: neuropeptide, substance P (Sigma) (RPKPQQFFGLM-NH2; ends and bridges not checked; UniProt P20366 58-68, looked up) | significantly higher | – | – | – | –
2 | B1 | – | significantly increased | no significant difference | no significant difference | increased
